Data from paper PMC2116414.

Biological target: Acanthamoeba myosin-II (Acanthamoeba)
Test: electron microscopy

## Acanthamoeba myosin-II (complex)
  stoichiometry N: 8
